Consider three molecules from patent US20170283495A1 (published 2017).

The chains are these.
T1: K18-biotin hepcidin-25 (human, biotin on K18)
T1 construct: also called K18-Biotin Hepcidin-25 tracer
T1 peptide: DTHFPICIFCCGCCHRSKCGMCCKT

T2: NT-biotin hepcidin-25 (human, NT-biotin (biotin label; NT is not spelled out, taken as the N-terminus))
T2 construct: also called NT-biotin hepcidin-25 tracer
T2 peptide: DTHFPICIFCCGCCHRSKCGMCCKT

T3: K24-biotin hepcidin-25 (human, biotin on K24)
T3 construct: also called K24-biotin hepcidin-25 tracer
T3 peptide: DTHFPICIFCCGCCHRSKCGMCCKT

T4: mouse hepcidin-1 peptide (mouse)
T4 construct: also called murine hepcidin-1; mouse hepcidin-25
T4 peptide: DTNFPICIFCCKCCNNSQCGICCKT

T5: human hepcidin 10-25 peptide (human, disulfide (positions not given here); also: oxidized and refolded with proper cysteine bonds, pairing not given here)
T5 construct: also called hep 10-25; hHepcidin 10-25
T5 peptide: CCGCCHRSKCGMCCKT

B1: human hepcidin-25 (synthetic) (peptide)
peptide: DTHFPICIFCCGCCHRSKCGMCCKT
notes: Synthetic, biologically active 25 aa peptide; also called hep-25; Hep-25
B2: murine anti-hepcidin MAb 583 (antibody, V domains shown)
VH: QIQLVQSGPELKKPGETVKISCKASGYTFTNYGMNWVKQAPGKGLKWMGWINTYTGEPTYADDFKGRFAFSLETSASTAYLQINNLKNEDTATYFCTTYATSWYWGQGTTLTVSS
VL: DIVLTQSPASLAVSLGQRATISCRASESVDSYGNSFMHWYQQKPGQPPKLLIYRASNLESGIPARFSGSGSRTDFTLTINPVEADDVATYYCQQSNEDLTFGGGTKLEIK
notes: Murine IgG from a hybridoma, purified on protein G (Protein A in some legends); detected with anti-mouse IgG1 (H+L); also called 5A3; hybridoma 5A3
B3: human hepcidin-20 peptide (peptide)
peptide: ICIFCCGCCHRSKCGMCCKT
notes: also called hep-20; hHepcidin-20

Where no end group is shown, it is not given here.

In assay [1] the target is B2. In words: C-ELISA, purified MAb 583 coated, hepcidin-25 against NT-biotin hepcidin-25 tracer (FIG. 16). As to the method: FIG. 16. […] The relative binding of the NT-biotin hepcidin-25 tracer (1 ng/well) relative to hepcidin-25, hepcidin-22, and hepcidin-20 was measured by ELISA. Four parameter logistical regression analysis was conducted using GraphPad Prism software to produce the curves shown.
(In general: ELISA stands for enzyme-linked immunosorbent assay.)

The target in assay [2] is T6, BAP070-01 human-mouse chimeric MAb 583.
T6 construct: tested as unpurified CHO cell supernatant (3650 ng/ml IgG); also called BAP070-01 chimera
In words: C-ELISA, BAP070-01 supernatant on Protein G, hepcidin-25 against NT-biotin hepcidin-25 tracer, 4-parameter fit. As to the method:
To capture BAP070-01 chimeric antibodies we coated microwell plates with Protein G (150 ng/well) overnight in carbonate coating buffer.
The plate was washed with TBST and one (1) ng/well of NT-biotin hepcidin-25 was mixed with different amounts (0-100 ng) of synthetic hepcidin-25 standard in TBST, 0.25% BLOTTO and added onto the plate to bind competitively. The plate was washed with TBST and SA-HRP (1:2500) added and allowed to bind for 1 hour.
The standard curve shown in FIG. 31 was generated using a four parameter logistical regression (Graphpad Prism; San Diego, Calif.).

Assay [3] addresses T1, K18-biotin hepcidin-25. As to the kind of experiment: Biacore SPR, biotin peptide on neutravidin chip, MAb 583 at 24 µg/ml. As to the method:
(§1) Biotinylated hepcidin peptides (NT-biotin-hepcidin-25, K18-biotin-hepcidin-25 and K24-biotin-hepcidin-25) were immobilized in flow cells 2-4 (one peptide species per flow cell) by injecting individual peptides at a concentration of 200 μg/ml at a flow rate of 5 μl/min, for 20 min.
(§2) After 3 minutes, injection was stopped and dissociation was followed for 6 min. Regeneration was performed by injecting 10 mM glycine HCl, pH 1.5 at a flow rate of 10 μl/min for 1 min.

Assay [4] concerns the target T2, NT-biotin hepcidin-25. Described as above. As to the method: as §1, §2
In the next assay the target is T3, K24-biotin hepcidin-25. Described as above. As to the method:
as §1, §2

The target in assay [5] is T2, NT-biotin hepcidin-25. In words: ELISA, 583 coated at 25 ng/well, tracer 1 ng/well, SA-HRP. As to the method: (§3) We used a microwell plate ELISA to assess antibody activity. […] The NT-biotin hepcidin-25 tracer was added across the plate at 1 ng/well in TBST, pH 8) containing 0.25% Blotto. The tracer was allowed to bind for 2 hours and the wells were washed in TBST, pH 8 with no Blotto. SA-HRP was added at 1:2500 for 30 minutes, the wells washed in TBST, and TMB substrate added for 10 minutes. Stop buffer was added the OD quantified on a spectrophotometer at 450 nm. An OD of 4 indicates the absorbance is beyond the analytic range of the spectrophotomer.

Assay [6] concerns the target B3. As to the kind of experiment: Western blot after non-reducing tricine SDS-PAGE.
A further assay concerns the target T4, mouse hepcidin-1 peptide. As to the kind of experiment: competition ELISA, MAb 583 coated, NT-biotin hepcidin-25 tracer.
Assay [7] deals with T5, human hepcidin 10-25 peptide. The description is as above.
In assay [8] the target is T2, NT-biotin hepcidin-25. In words: ELISA, 583 coated at 100 ng/well, tracer 1 ng/well, SA-HRP. As to the method: as §3
The target of assay [9] is T2, NT-biotin hepcidin-25. In words: ELISA, 583 coated at 12.5 ng/well, tracer 1 ng/well, SA-HRP. As to the method: as §3
Assay [10] deals with T2, NT-biotin hepcidin-25. In words: ELISA, 583 coated at 50 ng/well, tracer 1 ng/well, SA-HRP. As to the method:
as §3

Assay [11] concerns the target T1, K18-biotin hepcidin-25. In words: Biacore SPR, biotin peptide on chip, MAb 583 at 5 µg/ml. Background: SPR reads the build-up and loss of mass on a sensor chip optically.
In assay [12] the target is T2, NT-biotin hepcidin-25. The assay is described as above.
Assay [13] has as its target B2. In words: competition ELISA, MAb 583 coated, NT-biotin hepcidin-25 tracer.

The term EC50 denotes the concentration needed to bring the measured effect to its halfway point. Regarding B1, the EC50 in assay [1] is no more than 0.005 µg/mL; in [2], 0.054 µg/mL.

By Kd is commonly meant the constant that tells how readily two partners part at equilibrium. Lower therefore signals tighter binding. By koff is commonly meant the rate constant with which the complex falls apart. A low value points to a long-lived complex. One may read the kon as the second-order rate constant of association. B2: the Ka with K18-biotin hepcidin-25 [3] was 1.14e+09 M⁻¹; with NT-biotin hepcidin-25 [4], 1.94e+10 M⁻¹; with K24-biotin hepcidin-25, 1.8e+08 M⁻¹. The Kd in the assay with K18-biotin hepcidin-25 [3] is 878 pM; with NT-biotin hepcidin-25 [4] it was 51.6 pM; with K24-biotin hepcidin-25, 5540 pM; with K18-biotin hepcidin-25 [11], roughly 7.5 pM; in the assay with NT-biotin hepcidin-25 [12], roughly 18 pM. The figures for the Req with K18-biotin hepcidin-25 [3], with NT-biotin hepcidin-25 [4] and with K24-biotin hepcidin-25 were 126 RU, 78.8 RU and 63.1 RU, respectively. For the same molecule, the kobs with K18-biotin hepcidin-25 [3] turned out to be 0.0102 s⁻¹; in the assay with NT-biotin hepcidin-25 [4], 0.00977 s⁻¹; with K24-biotin hepcidin-25, 0.0086 s⁻¹. In addition, the koff in the assay with K18-biotin hepcidin-25 [3] worked out at 5.59e-05 s⁻¹; with NT-biotin hepcidin-25 [4], 3.15e-06 s⁻¹; in the assay with K24-biotin hepcidin-25, 0.000288 s⁻¹. For the same molecule, the on-rate (kon) came to 63700 M⁻¹ s⁻¹ with K18-biotin hepcidin-25 [3], 61100 M⁻¹ s⁻¹ with NT-biotin hepcidin-25 [4] and 52000 M⁻¹ s⁻¹ with K24-biotin hepcidin-25. Besides, the “OD 450 nm” value with NT-biotin hepcidin-25 [5], with NT-biotin hepcidin-25 [8], with NT-biotin hepcidin-25 [9] and in the assay with NT-biotin hepcidin-25 [10] was no less than 4 OD in each case. Moreover, the binding result in [6] is “binds”; in the assay with mouse hepcidin-1 peptide it was “no binding (tested: up to 2000 ng/ml)”; in [7], “no binding (tested: up to 2000 ng/ml)”.

Consider B3, for which the binding result in assay [13] is on record as “binds”.
